Results on three molecules are retold here after patent US20210299158A1 (NORTHWESTERN UNIVERSITY, published 2021).

Ends that are not written are not given here. * marks the point of attachment. Biotin = O=C1N[C@H]2[C@H](CS[C@H]2CCCCC(=O)*)N1

Test [1] concerns the target Collagen IV (surface coated, Example 2). Briefly: Cy5 fluorescence after 24 hour incubation on surface coated collagen IV; conjugate at 30 mg/ml; reference is the scrambled CBPi-Hep(Cy5) conjugate.
The target in test [2] is T1, Collagen type IV (mouse) (mouse, UniProt P02463 28-1669; P08122 26-1707).
T1 construct: Coated on plates at 10 ug/cm^2; the chains come from general knowledge; also called collagen IV; COL IV
T1 sequence (P02463 28-1669, chain 1 of 2): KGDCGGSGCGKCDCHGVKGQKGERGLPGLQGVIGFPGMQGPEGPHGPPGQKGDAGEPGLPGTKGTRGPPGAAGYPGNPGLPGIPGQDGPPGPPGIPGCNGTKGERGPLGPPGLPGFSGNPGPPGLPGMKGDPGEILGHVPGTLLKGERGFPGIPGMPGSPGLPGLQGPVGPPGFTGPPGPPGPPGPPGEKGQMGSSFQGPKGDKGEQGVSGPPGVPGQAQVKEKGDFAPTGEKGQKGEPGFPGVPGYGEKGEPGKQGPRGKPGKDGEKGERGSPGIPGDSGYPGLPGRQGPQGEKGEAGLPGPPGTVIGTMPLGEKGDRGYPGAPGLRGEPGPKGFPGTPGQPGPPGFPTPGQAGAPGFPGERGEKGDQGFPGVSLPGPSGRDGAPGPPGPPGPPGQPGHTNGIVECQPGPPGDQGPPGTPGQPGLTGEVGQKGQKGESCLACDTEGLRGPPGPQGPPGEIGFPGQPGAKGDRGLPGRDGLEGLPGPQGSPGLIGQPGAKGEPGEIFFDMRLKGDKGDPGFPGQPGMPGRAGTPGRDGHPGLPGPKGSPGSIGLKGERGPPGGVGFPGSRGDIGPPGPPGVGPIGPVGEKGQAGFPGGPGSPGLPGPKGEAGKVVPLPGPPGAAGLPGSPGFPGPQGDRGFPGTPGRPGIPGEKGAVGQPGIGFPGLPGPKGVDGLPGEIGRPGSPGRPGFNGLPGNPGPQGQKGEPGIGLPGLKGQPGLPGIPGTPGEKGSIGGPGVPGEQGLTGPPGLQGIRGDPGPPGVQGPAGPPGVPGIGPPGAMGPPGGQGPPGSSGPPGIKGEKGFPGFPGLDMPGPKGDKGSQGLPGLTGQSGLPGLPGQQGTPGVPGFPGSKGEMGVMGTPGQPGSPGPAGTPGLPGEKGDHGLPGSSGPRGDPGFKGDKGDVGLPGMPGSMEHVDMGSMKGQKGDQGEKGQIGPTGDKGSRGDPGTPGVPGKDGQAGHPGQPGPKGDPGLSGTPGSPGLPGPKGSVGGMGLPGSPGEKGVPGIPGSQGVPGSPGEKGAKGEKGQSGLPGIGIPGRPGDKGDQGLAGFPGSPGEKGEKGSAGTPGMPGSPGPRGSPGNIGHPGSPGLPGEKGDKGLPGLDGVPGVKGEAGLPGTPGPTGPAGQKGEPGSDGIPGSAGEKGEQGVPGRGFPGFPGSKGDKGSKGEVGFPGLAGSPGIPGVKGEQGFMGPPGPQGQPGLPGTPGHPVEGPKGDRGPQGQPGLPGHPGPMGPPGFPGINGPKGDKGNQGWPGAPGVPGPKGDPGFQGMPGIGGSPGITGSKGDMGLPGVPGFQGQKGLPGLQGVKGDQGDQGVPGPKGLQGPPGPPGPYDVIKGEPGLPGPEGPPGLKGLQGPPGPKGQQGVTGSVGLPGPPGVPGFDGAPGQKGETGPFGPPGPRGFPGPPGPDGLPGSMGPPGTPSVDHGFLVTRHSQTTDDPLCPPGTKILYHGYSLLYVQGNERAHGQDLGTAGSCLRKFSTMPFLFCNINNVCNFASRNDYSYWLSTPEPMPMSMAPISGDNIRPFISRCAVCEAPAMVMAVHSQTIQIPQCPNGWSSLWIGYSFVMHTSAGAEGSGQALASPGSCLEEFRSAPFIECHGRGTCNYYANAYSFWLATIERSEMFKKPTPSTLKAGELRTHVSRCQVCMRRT
T1 sequence (P08122 26-1707, chain 2 of 2): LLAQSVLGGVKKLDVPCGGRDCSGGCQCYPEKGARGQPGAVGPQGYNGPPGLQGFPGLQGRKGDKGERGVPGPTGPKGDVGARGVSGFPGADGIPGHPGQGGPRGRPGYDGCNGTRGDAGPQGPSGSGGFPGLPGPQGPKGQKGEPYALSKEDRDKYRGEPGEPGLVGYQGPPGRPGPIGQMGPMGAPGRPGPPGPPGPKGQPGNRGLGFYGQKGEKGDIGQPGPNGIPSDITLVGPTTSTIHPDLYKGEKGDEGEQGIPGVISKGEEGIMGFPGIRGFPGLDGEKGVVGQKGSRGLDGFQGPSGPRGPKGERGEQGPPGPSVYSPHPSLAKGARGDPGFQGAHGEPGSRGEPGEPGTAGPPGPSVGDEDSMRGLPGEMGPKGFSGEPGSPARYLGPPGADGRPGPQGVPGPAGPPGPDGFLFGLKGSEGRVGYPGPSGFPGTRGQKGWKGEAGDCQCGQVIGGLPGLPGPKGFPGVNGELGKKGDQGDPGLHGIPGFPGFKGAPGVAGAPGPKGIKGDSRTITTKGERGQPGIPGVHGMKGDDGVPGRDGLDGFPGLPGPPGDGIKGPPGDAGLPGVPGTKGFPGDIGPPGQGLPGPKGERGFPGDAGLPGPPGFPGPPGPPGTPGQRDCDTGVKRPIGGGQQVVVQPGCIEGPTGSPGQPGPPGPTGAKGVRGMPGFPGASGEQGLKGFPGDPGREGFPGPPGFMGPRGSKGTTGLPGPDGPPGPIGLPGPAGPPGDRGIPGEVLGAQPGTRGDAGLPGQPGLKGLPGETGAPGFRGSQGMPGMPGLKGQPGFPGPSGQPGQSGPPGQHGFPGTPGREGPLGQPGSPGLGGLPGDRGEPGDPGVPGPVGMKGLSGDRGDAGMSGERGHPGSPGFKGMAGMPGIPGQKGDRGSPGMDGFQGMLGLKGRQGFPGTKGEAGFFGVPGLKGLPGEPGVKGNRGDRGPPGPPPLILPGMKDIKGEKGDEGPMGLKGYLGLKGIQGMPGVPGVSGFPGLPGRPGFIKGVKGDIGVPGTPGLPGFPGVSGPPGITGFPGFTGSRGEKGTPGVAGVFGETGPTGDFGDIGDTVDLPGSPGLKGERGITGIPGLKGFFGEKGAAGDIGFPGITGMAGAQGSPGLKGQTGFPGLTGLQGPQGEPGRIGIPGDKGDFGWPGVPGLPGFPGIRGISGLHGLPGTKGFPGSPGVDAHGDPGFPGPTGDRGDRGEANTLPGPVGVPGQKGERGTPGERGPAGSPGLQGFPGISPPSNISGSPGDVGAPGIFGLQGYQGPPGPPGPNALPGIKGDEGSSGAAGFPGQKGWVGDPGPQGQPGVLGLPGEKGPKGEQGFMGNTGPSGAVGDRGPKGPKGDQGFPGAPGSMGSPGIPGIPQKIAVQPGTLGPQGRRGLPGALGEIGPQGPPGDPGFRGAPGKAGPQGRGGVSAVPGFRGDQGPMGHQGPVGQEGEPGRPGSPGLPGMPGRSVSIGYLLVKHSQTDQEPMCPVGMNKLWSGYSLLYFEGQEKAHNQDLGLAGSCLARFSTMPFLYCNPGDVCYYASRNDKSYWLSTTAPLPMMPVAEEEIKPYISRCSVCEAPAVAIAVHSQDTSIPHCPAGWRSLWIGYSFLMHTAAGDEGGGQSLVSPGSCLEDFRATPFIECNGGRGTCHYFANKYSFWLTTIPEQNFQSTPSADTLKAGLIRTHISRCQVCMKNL
Briefly: plate binding, biotinylated peptide on coated protein, streptavidin-594 fluorescence. The method, then:
(§1) Peptide and ECM Binding Specificity. Collagens I, II, III, and IV, fibronectin, laminin, and Matrigel were coated onto 96-well black plates at 10 μg/cm². Biotinylated CBP or CBPi were added to coated plates at 0, 1, 10, 100, and 1000 μM overnight at 4° C., after which the plates were washed three times with PBS. Fluorescent streptavidin-594 (4 μg/mL) was added to each well and incubated at room temperature for 2 h, then thoroughly washed with PBS. The plates were read with a fluorescence microplate reader for fluorescence intensity (Ex 591 nm, Em 614 nm). All data were normalized to the background fluorescence intensity of Streptavidin-594 alone directed at each coated protein.
(§2) CBP Selectively Binds to ECM with High Specificity to Collagen IV. […] Bound peptides were subsequently probed with fluorescently labeled streptavidin. CBP, but not CBPi, bound specifically to collagen IV coated surfaces with high relative affinity, and to collagen I coated surfaces to a much lesser extent. […] Neither CBP nor CBPi binds to collagen II, collagen III, or fibronectin.

For test [3], the target named is T2, Collagen type III (human) (human, UniProt P02461 154-1221).
T2 construct: Coated on plates; also called collagen III; COL III
T2 sequence (looked up): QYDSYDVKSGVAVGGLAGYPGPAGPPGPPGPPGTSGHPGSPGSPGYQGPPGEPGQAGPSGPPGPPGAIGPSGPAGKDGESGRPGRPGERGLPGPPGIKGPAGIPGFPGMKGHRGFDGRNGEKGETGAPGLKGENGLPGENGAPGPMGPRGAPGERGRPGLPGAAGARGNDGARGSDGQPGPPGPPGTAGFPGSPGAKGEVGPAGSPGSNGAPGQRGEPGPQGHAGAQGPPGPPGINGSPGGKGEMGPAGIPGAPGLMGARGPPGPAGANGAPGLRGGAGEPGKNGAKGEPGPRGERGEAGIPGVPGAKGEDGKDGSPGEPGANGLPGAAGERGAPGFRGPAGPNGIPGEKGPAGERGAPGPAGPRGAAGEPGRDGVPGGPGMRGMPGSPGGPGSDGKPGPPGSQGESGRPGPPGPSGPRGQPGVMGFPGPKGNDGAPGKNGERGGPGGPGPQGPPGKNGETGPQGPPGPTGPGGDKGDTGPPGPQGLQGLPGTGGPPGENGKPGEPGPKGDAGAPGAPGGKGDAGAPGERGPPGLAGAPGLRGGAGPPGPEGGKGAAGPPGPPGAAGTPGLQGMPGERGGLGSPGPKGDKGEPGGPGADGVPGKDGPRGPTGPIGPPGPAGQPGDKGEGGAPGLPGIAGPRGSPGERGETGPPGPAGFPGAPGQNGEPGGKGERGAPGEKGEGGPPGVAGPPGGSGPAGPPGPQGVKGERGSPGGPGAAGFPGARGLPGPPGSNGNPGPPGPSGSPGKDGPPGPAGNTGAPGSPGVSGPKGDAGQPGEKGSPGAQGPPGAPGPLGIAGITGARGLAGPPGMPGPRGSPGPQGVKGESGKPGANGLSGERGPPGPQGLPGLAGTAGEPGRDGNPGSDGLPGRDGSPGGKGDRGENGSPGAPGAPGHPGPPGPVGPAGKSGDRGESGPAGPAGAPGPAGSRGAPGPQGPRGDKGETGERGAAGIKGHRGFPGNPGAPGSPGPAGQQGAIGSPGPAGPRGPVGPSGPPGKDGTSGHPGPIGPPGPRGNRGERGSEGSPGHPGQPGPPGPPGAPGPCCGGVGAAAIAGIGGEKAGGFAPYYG
The test is described as above. The method, then:
as §1, §2

Another test concerns the target T3, Collagen type I (rat) (rat, UniProt P02454 152-1207; P02466 86-1125).
T3 construct: Coated on plates at 10 ug/cm^2; the chains come from general knowledge; also called collagen I; COL I
The test is described as above. The method, then: as §1, §2

The target of test [4] is T4, Fibronectin from human plasma (human, UniProt P02751-8 32-2296, limits assumed).
T4 construct: Coated on plates; also called FN
The test is described as above. The procedure:
as §1, §2

Test [5] has as its target T1, Collagen type IV (mouse). Briefly: plate binding, biotinylated CBP at 1000 µM on coated collagen IV, streptavidin-594 fluorescence normalised to background. The method, then:
as §1, §2

Test [6] has as its target T1, Collagen type IV (mouse). Briefly: plate binding, biotinylated CBP at 100 µM on coated collagen IV, streptavidin-594 fluorescence normalised to background. The procedure:
as §1, §2

B1: CBP-Hep(Cy5), improved batch (Heparin(Cy5)-CBP conjugate, 20 C, 10:1 molar ratio CBP:Hep-Cy5) (peptide)
peptide: CQDSETRTFY
modifications: also: peptide conjugated by EDC/NHS to carboxyl groups of Cy5-labelled heparin (28 kD), attachment site not given here
In test [1], B1 showed a fold binding against the scrambled CBPi control of 4 fold.
Turning to Biotin-CDEFQRSTTY (also called biotinylated CBPi) [Biotinylated inactive, nonbinding peptide CBPi (biotin-CDEFQRSTTY)], the binding result (with Collagen type IV (mouse) [2]; in test [3]; with Collagen type I (rat); in test [4]) was “no binding (tested: 1000 µM)” in each case.
Take Biotin-CQDSETRTFY (also called biotinylated CBP) [Biotinylated collagen-binding peptide CBP (biotin-CQDSETRTFY)]: the “fold increase in surface fluorescence intensity” value with Collagen type IV (mouse) [5] worked out at 12.1 fold; in the test with Collagen type IV (mouse) [6], 3.85 fold. The binding result in test [3] and in test [4] was “no binding (tested: 1000 µM)” throughout.
